Experimental findings from patent US20240000957A1 (published 2024) are described below.

Assay [1] concerns the target T1, Human EphA6 Fc fusion (Human, UniProt Q9UF33 23-550, limits assumed).
T1 construct: Bought Fc fusion; also called R&D Systems 5606-A6; not shown: Fc of the bought fusion
T1 sequence (looked up): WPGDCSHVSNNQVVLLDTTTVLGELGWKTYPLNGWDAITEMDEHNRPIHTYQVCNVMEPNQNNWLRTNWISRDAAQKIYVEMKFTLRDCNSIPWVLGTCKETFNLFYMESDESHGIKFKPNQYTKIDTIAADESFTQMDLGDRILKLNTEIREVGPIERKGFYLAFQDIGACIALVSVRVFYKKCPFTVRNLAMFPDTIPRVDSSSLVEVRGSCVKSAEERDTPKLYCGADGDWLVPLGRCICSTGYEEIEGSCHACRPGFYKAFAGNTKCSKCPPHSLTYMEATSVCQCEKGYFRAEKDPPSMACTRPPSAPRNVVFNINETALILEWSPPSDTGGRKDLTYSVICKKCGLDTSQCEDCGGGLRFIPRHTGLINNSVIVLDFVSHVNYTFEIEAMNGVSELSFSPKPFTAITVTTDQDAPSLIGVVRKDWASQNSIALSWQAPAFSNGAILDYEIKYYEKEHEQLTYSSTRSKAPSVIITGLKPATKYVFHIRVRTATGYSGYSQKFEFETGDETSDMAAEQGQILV
Put plainly: SPR, Fc-tagged protein captured by anti-human IgG.

Assay [2] deals with T2, Rat EphB1 Fc fusion (Rat, UniProt P09759 18-540, limits assumed).
T2 construct: SPR; R&D Systems 1596-B1
T2 sequence (looked up): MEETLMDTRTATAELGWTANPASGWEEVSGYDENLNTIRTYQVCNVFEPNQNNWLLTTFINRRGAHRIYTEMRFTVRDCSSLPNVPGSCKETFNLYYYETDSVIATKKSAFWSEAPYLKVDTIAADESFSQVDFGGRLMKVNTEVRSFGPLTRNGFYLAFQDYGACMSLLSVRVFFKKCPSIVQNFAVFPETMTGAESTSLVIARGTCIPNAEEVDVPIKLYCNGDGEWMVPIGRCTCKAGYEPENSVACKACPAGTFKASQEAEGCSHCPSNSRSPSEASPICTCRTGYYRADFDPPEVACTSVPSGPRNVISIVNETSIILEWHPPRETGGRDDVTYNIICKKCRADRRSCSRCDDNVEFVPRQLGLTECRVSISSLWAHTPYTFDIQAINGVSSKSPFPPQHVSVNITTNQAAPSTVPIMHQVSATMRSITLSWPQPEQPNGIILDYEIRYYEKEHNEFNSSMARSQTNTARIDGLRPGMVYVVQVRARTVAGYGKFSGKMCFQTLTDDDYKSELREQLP
The assay is described as follows: SPR.

Assay [3] concerns the target T3, Human EphA4 Fc fusion (Human, UniProt P54764 20-547).
T3 construct: SPR; Sino Biologics 11314-H03H
The assay is described as follows: SPR.

For assay [4], the target named is T4, Human EphA1 Fc fusion (Human, UniProt P21709 26-547).
T4 construct: SPR; Sino Biologics 15789-H02H
T4 sequence (looked up): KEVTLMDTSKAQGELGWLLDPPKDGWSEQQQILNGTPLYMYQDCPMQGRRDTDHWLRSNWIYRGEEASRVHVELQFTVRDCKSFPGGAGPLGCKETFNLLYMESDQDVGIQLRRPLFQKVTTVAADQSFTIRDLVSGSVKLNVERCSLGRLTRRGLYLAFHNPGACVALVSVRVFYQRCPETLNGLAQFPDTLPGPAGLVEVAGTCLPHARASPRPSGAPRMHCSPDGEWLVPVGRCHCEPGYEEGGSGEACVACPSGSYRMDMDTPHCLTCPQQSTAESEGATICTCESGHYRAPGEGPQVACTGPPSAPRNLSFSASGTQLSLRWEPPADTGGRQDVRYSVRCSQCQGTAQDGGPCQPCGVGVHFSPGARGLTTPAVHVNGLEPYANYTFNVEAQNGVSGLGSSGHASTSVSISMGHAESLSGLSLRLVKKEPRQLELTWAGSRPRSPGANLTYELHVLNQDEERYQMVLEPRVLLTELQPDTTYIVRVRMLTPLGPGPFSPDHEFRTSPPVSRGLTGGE
Put plainly: SPR.

Assay [5] addresses T5, Human EphA7 Fc fusion (Human, UniProt Q15375 28-555, limits assumed).
T5 construct: SPR; R&D Systems 6756-A7
T5 sequence (looked up): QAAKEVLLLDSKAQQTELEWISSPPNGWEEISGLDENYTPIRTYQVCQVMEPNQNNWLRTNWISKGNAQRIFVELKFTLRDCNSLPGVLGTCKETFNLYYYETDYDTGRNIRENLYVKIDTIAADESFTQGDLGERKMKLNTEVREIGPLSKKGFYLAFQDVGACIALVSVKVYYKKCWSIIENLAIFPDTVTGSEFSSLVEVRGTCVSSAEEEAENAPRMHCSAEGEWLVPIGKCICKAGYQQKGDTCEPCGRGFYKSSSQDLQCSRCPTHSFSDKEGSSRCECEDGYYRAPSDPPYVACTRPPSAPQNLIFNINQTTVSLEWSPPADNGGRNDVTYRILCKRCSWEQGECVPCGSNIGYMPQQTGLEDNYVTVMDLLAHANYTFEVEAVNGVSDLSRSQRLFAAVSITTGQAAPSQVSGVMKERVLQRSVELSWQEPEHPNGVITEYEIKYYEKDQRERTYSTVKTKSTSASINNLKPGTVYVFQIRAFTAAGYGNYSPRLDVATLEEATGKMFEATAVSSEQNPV
Put plainly: SPR.

Assay [6] concerns the target T6, Mouse EphA4 Fc fusion (Mouse, UniProt Q03137 20-547).
T6 construct: SPR; Sino Biologics 50575-M02H
The assay is described as follows: SPR.

In assay [7] the target is T7, Mouse EphA3 Fc fusion (Mouse, UniProt P29319 21-540).
T7 construct: SPR; Sino Biologics 51122-M02H
T7 sequence (looked up): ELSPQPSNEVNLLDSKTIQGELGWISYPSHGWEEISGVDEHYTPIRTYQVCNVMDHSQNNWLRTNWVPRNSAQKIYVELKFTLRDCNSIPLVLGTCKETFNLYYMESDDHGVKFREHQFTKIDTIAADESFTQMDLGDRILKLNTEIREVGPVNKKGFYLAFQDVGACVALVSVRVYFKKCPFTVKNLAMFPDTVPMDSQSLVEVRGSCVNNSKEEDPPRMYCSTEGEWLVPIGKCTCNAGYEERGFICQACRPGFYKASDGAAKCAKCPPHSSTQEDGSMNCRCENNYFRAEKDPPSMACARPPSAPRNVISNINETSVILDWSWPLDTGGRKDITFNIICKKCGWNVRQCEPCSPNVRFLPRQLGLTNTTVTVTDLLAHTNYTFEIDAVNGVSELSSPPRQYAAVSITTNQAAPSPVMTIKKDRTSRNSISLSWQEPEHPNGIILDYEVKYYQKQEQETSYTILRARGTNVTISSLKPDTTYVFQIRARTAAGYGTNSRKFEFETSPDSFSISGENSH
Put plainly: SPR.

T3 sequence (P54764 20-547 limits assumed): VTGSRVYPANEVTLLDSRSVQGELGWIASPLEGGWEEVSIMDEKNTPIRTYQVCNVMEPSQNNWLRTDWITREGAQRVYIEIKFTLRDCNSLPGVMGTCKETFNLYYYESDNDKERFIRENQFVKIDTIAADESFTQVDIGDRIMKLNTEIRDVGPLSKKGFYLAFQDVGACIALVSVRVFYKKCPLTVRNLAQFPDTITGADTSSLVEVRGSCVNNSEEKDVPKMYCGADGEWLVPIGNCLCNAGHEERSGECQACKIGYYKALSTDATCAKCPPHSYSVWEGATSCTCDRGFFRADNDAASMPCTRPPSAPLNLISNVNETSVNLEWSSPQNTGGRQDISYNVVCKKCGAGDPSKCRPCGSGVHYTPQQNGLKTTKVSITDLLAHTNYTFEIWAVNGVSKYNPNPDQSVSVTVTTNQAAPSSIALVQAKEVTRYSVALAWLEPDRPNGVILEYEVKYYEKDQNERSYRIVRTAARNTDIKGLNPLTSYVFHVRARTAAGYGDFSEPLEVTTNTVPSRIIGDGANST
T6 sequence (Q03137 20-547 limits assumed): as the sequence (P54764 20-547 limits assumed) above, with P59A, N121S, V124G, R250Q, S251N, T270S, K378R, N406S counted along it

B1: BCY6033 (peptide)
peptide: AXDCPLVNPLCLHPGWTC
modifications: not fully specified; N-terminal (β-Ala)-Sar10 spacer precedes SEQ ID NO: 11; HArg (homoarginine) at residue 2 of SEQ ID NO: 11; three Cys cyclised on the TATA scaffold; ValCit-MMAE (MMAE-PABC-Cit-Val-glutarate) on the N-terminal amine
On to B1, for which, in assay [1], the binding result is listed as “no binding (tested: 20 µM)”.

B2: BCY6033 (peptide)
peptide: AXDCPLVNPLCLHPGWTC
modifications: not fully specified; as BCY6014 (N-terminal (β-Ala)-Sar10; HArg; TATA scaffold on the 3 Cys) + ValCit-MMAE
notes: Bicycle drug conjugate (BDC)
Consider B2, for which the binding result in assay [2], in assay [3], in assay [4], in assay [5], in assay [6] and in assay [7] was “no binding” each time.

B3: BCY6082 (peptide)
peptide: AXDCPLVNPLCLHPGWTC
modifications: not fully specified; as BCY6014 (N-terminal (β-Ala)-Sar10; HArg; TATA scaffold on the 3 Cys) + DM1-SS(SO3H)-
notes: Bicycle drug conjugate (BDC)
With B3, the binding result in assay [2], in assay [3], in assay [4], in assay [5], in assay [6] and in assay [7] was “no binding” in each case.

B4: BCY6082 (peptide)
peptide: AXDCPLVNPLCLHPGWTC
modifications: not fully specified; N-terminal (β-Ala)-Sar10 spacer precedes SEQ ID NO: 11; HArg (homoarginine) at residue 2 of SEQ ID NO: 11; three Cys cyclised on the TATA scaffold; DM1-SS(SO3H)- (DM1-SO3H-SPDB) on the N-terminal amine
Consider B4, for which the binding result in assay [1] is listed as “no binding (tested: 20 µM)”.
